From patent publication US20190300576A1

Experiments:
[1] = target: SUMO-C-CA (HIV-1); assay: HPSEC affinity selection, 50*7.8mm BIO-SEC-3 column, peptide quantified by LC-MS in the protein fraction
[2] = target: Trypsin from bovine pancreas (bovine) (UniProt P00760); assay: Trypsin inhibition assay
[3] = target: SUMO-C-CA (HIV-1); assay: BLI, C-terminally biotinylated peptide immobilized
[4] = target: SUMO-C-CA (HIV-1); assay: BLI, biotinylated peptide immobilized on streptavidin sensors, SUMO-C-CA in solution
[5] = target: SUMO-C-CA (HIV-1); assay: BLI, peptide on streptavidin sensors, global fit

Chain of Trypsin from bovine pancreas (bovine) (P00760 24-246): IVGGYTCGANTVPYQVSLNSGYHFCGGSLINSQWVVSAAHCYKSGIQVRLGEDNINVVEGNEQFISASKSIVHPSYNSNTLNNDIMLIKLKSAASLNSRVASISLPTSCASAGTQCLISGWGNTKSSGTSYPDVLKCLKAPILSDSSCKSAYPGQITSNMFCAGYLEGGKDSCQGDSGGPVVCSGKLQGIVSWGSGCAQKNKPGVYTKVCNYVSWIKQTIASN

| Substance | Selection yield (%) [1] [%] | Kd [2] [nM] | Kd [3] [nM] | Kd [4] [nM] | Kd [5] [nM] |
| --- | --- | --- | --- | --- | --- |
| CAI (37) (peptide) | 0.5 |  |  |  |  |
| EETI-II-diol (59) (from UniProt P12071 1-28) (peptide) |  | 0.93 |  |  |  |
| peptide 37a (biotinylated CAI) |  |  | 2300 | 2300 | 2200 |
| peptide NYAD (37a-M) |  |  |  | 5800 | 5000 |
